Results published in IntAct's records for PubMed 18583962.

B1: LIM domain-binding protein 1 (Mus musculus), P70662 (parent)
chain: MSVGCACPGCSSKSFKLYSPKEPPNGNAFPPFHPGTMLDRDVGPTPMYPPTYLEPGIGRHTPYGNQTDYRIFELNKRLQNWTEECDNLWWDAFTTEFFEDDAMLTITFCLEDGPKRYTIGRTLIPRYFRSIFEGGATELYYVLKHPKEAFHSNFVSLDCDQGSMVTQHGKPMFTQVCVEGRLYLEFMFDDMMRIKTWHFSIRQHRELIPRSILAMHAQDPQMLDQLSKNITRCGLSNSTLNYLRLCVILEPMQELMSRHKTYSLSPRDCLKTCLFQKWQRMVAPPAEPARQQPSKRRKRKMSGGSTMSSGGGNTNNSNSKKKSPASTFALSSQVPDVMVVGEPTLMGGEFGDEDERLITRLENTQFDAANGIDDEDSFNNSPALGANSPWNSKPPSSQESKSENPTSQASQ
partner: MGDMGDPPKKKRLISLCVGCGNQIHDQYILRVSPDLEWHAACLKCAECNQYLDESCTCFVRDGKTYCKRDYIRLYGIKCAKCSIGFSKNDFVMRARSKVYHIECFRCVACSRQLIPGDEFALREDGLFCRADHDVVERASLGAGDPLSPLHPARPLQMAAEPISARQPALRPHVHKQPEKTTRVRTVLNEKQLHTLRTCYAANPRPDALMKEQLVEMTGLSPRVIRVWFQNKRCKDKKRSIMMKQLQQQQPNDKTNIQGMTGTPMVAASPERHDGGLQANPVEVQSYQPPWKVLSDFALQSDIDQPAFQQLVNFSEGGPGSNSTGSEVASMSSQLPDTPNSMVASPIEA
B2: Insulin gene enhancer protein ISL-1 (Mus musculus), P61372 (parent)
chain: B1 partner
partner: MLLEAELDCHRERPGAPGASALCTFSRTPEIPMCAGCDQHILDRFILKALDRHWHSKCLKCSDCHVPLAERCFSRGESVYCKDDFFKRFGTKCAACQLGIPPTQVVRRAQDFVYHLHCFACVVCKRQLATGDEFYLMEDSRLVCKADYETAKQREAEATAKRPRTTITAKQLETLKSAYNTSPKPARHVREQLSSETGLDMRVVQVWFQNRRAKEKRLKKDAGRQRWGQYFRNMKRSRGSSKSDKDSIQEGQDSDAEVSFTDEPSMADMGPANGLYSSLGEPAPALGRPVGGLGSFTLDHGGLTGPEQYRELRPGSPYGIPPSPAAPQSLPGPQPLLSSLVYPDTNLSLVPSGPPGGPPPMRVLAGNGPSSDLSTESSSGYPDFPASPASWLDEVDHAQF
B3: LIM domain-binding protein 1 (Mus musculus), P70662 (parent)
chain: B1 chain
partner: B2 partner

Variants of: B1
Settings: with isl1_mouse Isl1, P61372

Row | effect of a mutation on the interaction | Variant
1 | disrupting interaction | MSVGCACPGCSSKSFKLYSPKEPPNGNAFPPFHPGTMLDRDVGPTPMYPPTYLEPGIGRHTPYGNQTDYRIFELNKRLQNWTEECDNLWWDAFTTEFFEDDAMLTITFCLEDGPKRYTIGRTLIPRYFRSIFEGGATELYYVLKHPKEAFHSNFVSLDCDQGSMVTQHGKPMFTQVCVEGRLYLEFMFDDMMRIKTWHFSIRQHRELIPRSILAMHAQDPQMLDQLSKNITRCGLSNSTLNYLRLCVILEPMQELMSRHKTYSLSPRDCLKTCLFQKWQRMVAPPAEPARQQPSKRRKRKMSGGSTMSSGGGNTNNSNSKKKSPASTFALSSQVPDVMVVGEPTLMGGEFGDEDERLIARLENTQFDAANGIDDEDSFNNSPALGANSPWNSKPPSSQESKSENPTSQASQ [T359A]

Variants of: B1
Settings: with isl1_mouse Isl1, P61372
Remark: another data set of the same source

Row | effect of a mutation on the interaction | Variant
2 | decreasing interaction | MSVGCACPGCSSKSFKLYSPKEPPNGNAFPPFHPGTMLDRDVGPTPMYPPTYLEPGIGRHTPYGNQTDYRIFELNKRLQNWTEECDNLWWDAFTTEFFEDDAMLTITFCLEDGPKRYTIGRTLIPRYFRSIFEGGATELYYVLKHPKEAFHSNFVSLDCDQGSMVTQHGKPMFTQVCVEGRLYLEFMFDDMMRIKTWHFSIRQHRELIPRSILAMHAQDPQMLDQLSKNITRCGLSNSTLNYLRLCVILEPMQELMSRHKTYSLSPRDCLKTCLFQKWQRMVAPPAEPARQQPSKRRKRKMSGGSTMSSGGGNTNNSNSKKKSPASTFALSSQVPDVMVVGEPTLMGGEFGDEDERLIAAAENTQFDAANGIDDEDSFNNSPALGANSPWNSKPPSSQESKSENPTSQASQ [T359A;R360A;L361A]

Variants of: B1
Settings: with isl1_mouse Isl1, P61372
Remark: another data set of the same source

Row | effect of a mutation on the interaction | Variant
3 | disrupting interaction | MSVGCACPGCSSKSFKLYSPKEPPNGNAFPPFHPGTMLDRDVGPTPMYPPTYLEPGIGRHTPYGNQTDYRIFELNKRLQNWTEECDNLWWDAFTTEFFEDDAMLTITFCLEDGPKRYTIGRTLIPRYFRSIFEGGATELYYVLKHPKEAFHSNFVSLDCDQGSMVTQHGKPMFTQVCVEGRLYLEFMFDDMMRIKTWHFSIRQHRELIPRSILAMHAQDPQMLDQLSKNITRCGLSNSTLNYLRLCVILEPMQELMSRHKTYSLSPRDCLKTCLFQKWQRMVAPPAEPARQQPSKRRKRKMSGGSTMSSGGGNTNNSNSKKKSPASTFALSSQVPDVMVVGEPTLMGGEFGDEDEAAATRLENTQFDAANGIDDEDSFNNSPALGANSPWNSKPPSSQESKSENPTSQASQ [R356A;L357A;I358A]

Variants of: B2
Settings: with lhx3_mouse Lhx3, P50481

Row | effect of a mutation on the interaction | Variant
4 | disrupting interaction | MGDMGDPPKKKRLISLCVGCGNQIHDQYILRVSPDLEWHAACLKCAECNQYLDESCTCFVRDGKTYCKRDYIRLYGIKCAKCSIGFSKNDFVMRARSKVYHIECFRCVACSRQLIPGDEFALREDGLFCRADHDVVERASLGAGDPLSPLHPARPLQMAAEPISARQPALRPHVHKQPEKTTRVRTVLNEKQLHTLRTCYAANPRPDALMKEQLVEMTGLSPRVIRVWFQNKRCKDKKRSIMMKQLQQQQPNDKTNIQGMTGTAMVAASPERHDGGLQANPVEVQSYQPPWKVLSDFALQSDIDQPAFQQLVNFSEGGPGSNSTGSEVASMSSQLPDTPNSMVASPIEA [P264A]
5 | disrupting interaction | MGDMGDPPKKKRLISLCVGCGNQIHDQYILRVSPDLEWHAACLKCAECNQYLDESCTCFVRDGKTYCKRDYIRLYGIKCAKCSIGFSKNDFVMRARSKVYHIECFRCVACSRQLIPGDEFALREDGLFCRADHDVVERASLGAGDPLSPLHPARPLQMAAEPISARQPALRPHVHKQPEKTTRVRTVLNEKQLHTLRTCYAANPRPDALMKEQLVEMTGLSPRVIRVWFQNKRCKDKKRSIMMKQLQQQQPNDKTNIQGMTGAPMVAASPERHDGGLQANPVEVQSYQPPWKVLSDFALQSDIDQPAFQQLVNFSEGGPGSNSTGSEVASMSSQLPDTPNSMVASPIEA [T263A]
6 | disrupting interaction | MGDMGDPPKKKRLISLCVGCGNQIHDQYILRVSPDLEWHAACLKCAECNQYLDESCTCFVRDGKTYCKRDYIRLYGIKCAKCSIGFSKNDFVMRARSKVYHIECFRCVACSRQLIPGDEFALREDGLFCRADHDVVERASLGAGDPLSPLHPARPLQMAAEPISARQPALRPHVHKQPEKTTRVRTVLNEKQLHTLRTCYAANPRPDALMKEQLVEMTGLSPRVIRVWFQNKRCKDKKRSIMMKQLQQQQPNDKTNIQGMTATPMVAASPERHDGGLQANPVEVQSYQPPWKVLSDFALQSDIDQPAFQQLVNFSEGGPGSNSTGSEVASMSSQLPDTPNSMVASPIEA [G262A]

Variants of: B2
Settings: with lhx3_mouse Lhx3, P50481
Remark: another data set of the same source

Row | effect of a mutation on the interaction | Variant
7 | disrupting interaction | MGDMGDPPKKKRLISLCVGCGNQIHDQYILRVSPDLEWHAACLKCAECNQYLDESCTCFVRDGKTYCKRDYIRLYGIKCAKCSIGFSKNDFVMRARSKVYHIECFRCVACSRQLIPGDEFALREDGLFCRADHDVVERASLGAGDPLSPLHPARPLQMAAEPISARQPALRPHVHKQPEKTTRVRTVLNEKQLHTLRTCYAANPRPDALMKEQLVEMTGLSPRVIRVWFQNKRCKDKKRSIMMKQLQQQQPNDKTNIQGMTGTPAVAASPERHDGGLQANPVEVQSYQPPWKVLSDFALQSDIDQPAFQQLVNFSEGGPGSNSTGSEVASMSSQLPDTPNSMVASPIEA [M265A]

Variants of: B2
Settings: with lhx3_mouse Lhx3, P50481
Remark: another data set of the same source

Row | effect of a mutation on the interaction | Variant
8 | disrupting interaction | MGDMGDPPKKKRLISLCVGCGNQIHDQYILRVSPDLEWHAACLKCAECNQYLDESCTCFVRDGKTYCKRDYIRLYGIKCAKCSIGFSKNDFVMRARSKVYHIECFRCVACSRQLIPGDEFALREDGLFCRADHDVVERASLGAGDPLSPLHPARPLQMAAEPISARQPALRPHVHKQPEKTTRVRTVLNEKQLHTLRTCYAANPRPDALMKEQLVEMTGLSPRVIRVWFQNKRCKDKKRSIMMKQLQQQQPNDKTNIQGMTGTPMVGASPERHDGGLQANPVEVQSYQPPWKVLSDFALQSDIDQPAFQQLVNFSEGGPGSNSTGSEVASMSSQLPDTPNSMVASPIEA [A267G]

Variants of: B3
Settings: with lhx3_mouse Lhx3, P50481

Row | effect of a mutation on the interaction | Variant
9 | disrupting interaction | MSVGCACPGCSSKSFKLYSPKEPPNGNAFPPFHPGTMLDRDVGPTPMYPPTYLEPGIGRHTPYGNQTDYRIFELNKRLQNWTEECDNLWWDAFTTEFFEDDAMLTITFCLEDGPKRYTIGRTLIPRYFRSIFEGGATELYYVLKHPKEAFHSNFVSLDCDQGSMVTQHGKPMFTQVCVEGRLYLEFMFDDMMRIKTWHFSIRQHRELIPRSILAMHAQDPQMLDQLSKNITRCGLSNSTLNYLRLCVILEPMQELMSRHKTYSLSPRDCLKTCLFQKWQRMVAPPAEPARQQPSKRRKRKMSGGSTMSSGGGNTNNSNSKKKSPASTFALSSQVPDVAVVGEPTLMGGEFGDEDERLITRLENTQFDAANGIDDEDSFNNSPALGANSPWNSKPPSSQESKSENPTSQASQ [M338A]
10 | disrupting interaction | MSVGCACPGCSSKSFKLYSPKEPPNGNAFPPFHPGTMLDRDVGPTPMYPPTYLEPGIGRHTPYGNQTDYRIFELNKRLQNWTEECDNLWWDAFTTEFFEDDAMLTITFCLEDGPKRYTIGRTLIPRYFRSIFEGGATELYYVLKHPKEAFHSNFVSLDCDQGSMVTQHGKPMFTQVCVEGRLYLEFMFDDMMRIKTWHFSIRQHRELIPRSILAMHAQDPQMLDQLSKNITRCGLSNSTLNYLRLCVILEPMQELMSRHKTYSLSPRDCLKTCLFQKWQRMVAPPAEPARQQPSKRRKRKMSGGSTMSSGGGNTNNSNSKKKSPASTFALSSQVPDVMVVGEPTLMGGEFGDEDERLATRLENTQFDAANGIDDEDSFNNSPALGANSPWNSKPPSSQESKSENPTSQASQ [I358A]

Variants of: B3
Settings: with lhx3_mouse Lhx3, P50481
Remark: another data set of the same source

Row | effect of a mutation on the interaction | Variant
11 | disrupting interaction | MSVGCACPGCSSKSFKLYSPKEPPNGNAFPPFHPGTMLDRDVGPTPMYPPTYLEPGIGRHTPYGNQTDYRIFELNKRLQNWTEECDNLWWDAFTTEFFEDDAMLTITFCLEDGPKRYTIGRTLIPRYFRSIFEGGATELYYVLKHPKEAFHSNFVSLDCDQGSMVTQHGKPMFTQVCVEGRLYLEFMFDDMMRIKTWHFSIRQHRELIPRSILAMHAQDPQMLDQLSKNITRCGLSNSTLNYLRLCVILEPMQELMSRHKTYSLSPRDCLKTCLFQKWQRMVAPPAEPARQQPSKRRKRKMSGGSTMSSGGGNTNNSNSKKKSPASTFALSSQVPDVMVVGEPTAMGGEFGDEDERLITRLENTQFDAANGIDDEDSFNNSPALGANSPWNSKPPSSQESKSENPTSQASQ [L345A]

Variants of: B3
Settings: with lhx3_mouse Lhx3, P50481
Remark: another data set of the same source

Row | effect of a mutation on the interaction | Variant
12 | disrupting interaction | MSVGCACPGCSSKSFKLYSPKEPPNGNAFPPFHPGTMLDRDVGPTPMYPPTYLEPGIGRHTPYGNQTDYRIFELNKRLQNWTEECDNLWWDAFTTEFFEDDAMLTITFCLEDGPKRYTIGRTLIPRYFRSIFEGGATELYYVLKHPKEAFHSNFVSLDCDQGSMVTQHGKPMFTQVCVEGRLYLEFMFDDMMRIKTWHFSIRQHRELIPRSILAMHAQDPQMLDQLSKNITRCGLSNSTLNYLRLCVILEPMQELMSRHKTYSLSPRDCLKTCLFQKWQRMVAPPAEPARQQPSKRRKRKMSGGSTMSSGGGNTNNSNSKKKSPASTFALSSQVPDVMVVGEPALMGGEFGDEDERLITRLENTQFDAANGIDDEDSFNNSPALGANSPWNSKPPSSQESKSENPTSQASQ [T344A]

Variants of: B3
Settings: with lhx3_mouse Lhx3, P50481
Remark: another data set of the same source

Row | effect of a mutation on the interaction | Variant
13 | disrupting interaction | MSVGCACPGCSSKSFKLYSPKEPPNGNAFPPFHPGTMLDRDVGPTPMYPPTYLEPGIGRHTPYGNQTDYRIFELNKRLQNWTEECDNLWWDAFTTEFFEDDAMLTITFCLEDGPKRYTIGRTLIPRYFRSIFEGGATELYYVLKHPKEAFHSNFVSLDCDQGSMVTQHGKPMFTQVCVEGRLYLEFMFDDMMRIKTWHFSIRQHRELIPRSILAMHAQDPQMLDQLSKNITRCGLSNSTLNYLRLCVILEPMQELMSRHKTYSLSPRDCLKTCLFQKWQRMVAPPAEPARQQPSKRRKRKMSGGSTMSSGGGNTNNSNSKKKSPASTFALSSQVPDVMAVGEPTLMGGEFGDEDERLITRLENTQFDAANGIDDEDSFNNSPALGANSPWNSKPPSSQESKSENPTSQASQ [V339A]
